The source of these data is article PMC6397515.

In assay [1] the target is full-length StHypT protein (HypT of Salmonella enterica serovar Typhimurium, WP_000383509) (Salmonella enterica serovar Typhimurium). As to the kind of experiment: crystal structure.
Assay [2] has the same target. As to the kind of experiment: SEC.
Assay [3] has as its target HypT RD M206Q mutant protein (Salmonella enterica serovar Typhimurium). In words: crystal structure.

Take “full-length StHypT protein (HypT of Salmonella enterica serovar Typhimurium, WP_000383509) (natural protein)”: the stoichiometry N in assay [1] and in assay [2] was 4 throughout.
Regarding “HypT RD M206Q mutant protein (domain or fragment)”, in assay [3], the stoichiometry N (in general, a count of units in the complex or per binding partner) came out at 2.
